Columns and labels:
[1] = target: T1, CASK CaMK domain (residues M1-A310) (human, UniProt O14936 1-310); assay: SPR
T1 sequence (looked up): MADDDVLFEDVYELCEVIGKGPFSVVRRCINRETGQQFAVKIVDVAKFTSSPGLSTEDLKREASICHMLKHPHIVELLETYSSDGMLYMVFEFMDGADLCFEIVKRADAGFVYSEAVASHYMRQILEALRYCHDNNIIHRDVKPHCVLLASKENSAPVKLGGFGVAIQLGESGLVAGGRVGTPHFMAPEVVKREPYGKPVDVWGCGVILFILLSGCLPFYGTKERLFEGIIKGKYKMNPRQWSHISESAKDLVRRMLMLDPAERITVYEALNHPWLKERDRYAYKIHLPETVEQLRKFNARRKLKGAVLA

[2] = target: T1, CASK CaMK domain (residues M1-A310); assay: SEC

B1: Caskin1 CID (residues I375 to G471) (domain or fragment, UniProt Q8WXD9 375-471, looked up)
chain: IWVLRKPFAGGDRSGSISGMAGGRGSGGHALHAGSEGVKLLATVLSQKSVSESGPGDSPAKPPEGSAGVARSQPPVAHAGQVYGEQPPKKLEPASEG
[1]
  Kd: 7.5 ± 0.5 µM

B2: Caskin1 CID-SAMs (residues I375 to L605), wild type (domain or fragment)
chain: not shown
[2]
  binding result: binds

From article PMC3158819 (Journal of molecular biology, 2011)
